In publication doi:10.1101/2022.06.28.497981:

Key:
[1] = target: batCOV5-MCTD-GFP as crystallized (Pipistrellus bat coronavirus HKU5) (UniProt A3EXD6); experiment: crystal structure
[2] = target: batCOV5-M, trypsin-treated stable core as crystallized (batCOV5-M_(xtal)) (Pipistrellus bat coronavirus HKU5) (UniProt A3EXD6); experiment: crystal structure

batCOV5-MCTD-GFP as crystallized (from UniProt A3EXD6 115-203) (domain or fragment)
stoichiometry N [1]: 4

batCOV5-M, trypsin-treated stable core as crystallized (batCOV5-M_(xtal)) (from UniProt A3EXD6 1-220) (natural protein)
stoichiometry N [2]: 2
